Consider three molecules from paper PMC3074190 (Molecular carcinogenesis, 2010).

The target of assay [1] is T1, GST-β-catenin-S37A (human, UniProt P35222 1-781, S37A).
T1 sequence (looked up): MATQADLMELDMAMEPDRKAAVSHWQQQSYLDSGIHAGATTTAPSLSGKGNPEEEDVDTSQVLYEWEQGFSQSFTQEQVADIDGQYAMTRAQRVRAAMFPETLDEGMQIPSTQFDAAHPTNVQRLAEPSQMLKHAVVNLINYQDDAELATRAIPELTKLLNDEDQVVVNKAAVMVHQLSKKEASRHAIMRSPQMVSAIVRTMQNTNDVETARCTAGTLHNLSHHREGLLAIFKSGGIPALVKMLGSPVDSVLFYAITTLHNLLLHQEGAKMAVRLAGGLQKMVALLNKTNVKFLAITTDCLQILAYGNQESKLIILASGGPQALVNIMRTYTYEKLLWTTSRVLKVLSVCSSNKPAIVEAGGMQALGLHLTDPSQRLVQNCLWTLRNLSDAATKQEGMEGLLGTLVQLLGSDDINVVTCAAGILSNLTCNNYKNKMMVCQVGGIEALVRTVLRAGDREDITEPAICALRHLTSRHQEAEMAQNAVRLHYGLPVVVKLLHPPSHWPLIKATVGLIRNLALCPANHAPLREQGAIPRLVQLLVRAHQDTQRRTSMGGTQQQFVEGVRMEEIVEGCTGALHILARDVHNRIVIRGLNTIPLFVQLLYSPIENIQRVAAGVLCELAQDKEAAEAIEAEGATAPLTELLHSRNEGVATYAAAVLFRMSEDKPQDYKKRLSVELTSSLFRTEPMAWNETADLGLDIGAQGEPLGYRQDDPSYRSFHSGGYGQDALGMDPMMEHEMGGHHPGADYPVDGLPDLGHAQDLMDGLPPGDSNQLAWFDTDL
The assay is described as follows: pull-down.

The target of assay [2] is β-catenin bait (BD fusion) (human) (UniProt P35222). The assay is described as follows: two-hybrid.

B1: human vitamin D receptor, full-length wild type (F/M4 allele), 35S-methionine labelled (natural protein, UniProt P11473 4-427, looked up)
chain: MAASTSLPDPGDFDRNVPRICGVCGDRATGFHFNAMTCEGCKGFFRRSMKRKALFTCPFNGDCRITKDNRRHCQACRLKRCVDIGMMKEFILTDEEVQRKREMILKRKEEEALKDSLRPKLSEEQQRIIAILLDAHHKTYDPTYSDFCQFRPPVRVNDGGGSHPSRPNSRHTPSFSGDSSSSCSDHCITSSDMMDSSSFSNLDLSEEDSDDPSVTLELSQLSMLPHLADLVSYSIQKVIGFAKMIPGFRDLTSEDQIVLLKSSAIEVIMLRSNESFTMDDMSWTCGNQDYKYRVSDVTKAGHSLELIEPLIKFQVGLKKLNLHEEEHVLLMAICIVSPDRPGVQDAALIEAIQDRLSNTLQTYIRCRHPPPGSHLLYAKMIQKLADLRSLNEEHSKQYRCLSFQPECSMKLTPLVLEVFGNEIS
modifications: 35S-methionine labelled
For the molecule B1, the “band intensity with GST-β-catenin, fold over GST-only control” value in assay [1] turned out to be 8.3 fold.

B2: VDR Δ1–88, N-terminally truncated VDR, 35S-methionine labelled (domain or fragment, human, UniProt P11473 89-427, looked up)
chain: MMKEFILTDEEVQRKREMILKRKEEEALKDSLRPKLSEEQQRIIAILLDAHHKTYDPTYSDFCQFRPPVRVNDGGGSHPSRPNSRHTPSFSGDSSSSCSDHCITSSDMMDSSSFSNLDLSEEDSDDPSVTLELSQLSMLPHLADLVSYSIQKVIGFAKMIPGFRDLTSEDQIVLLKSSAIEVIMLRSNESFTMDDMSWTCGNQDYKYRVSDVTKAGHSLELIEPLIKFQVGLKKLNLHEEEHVLLMAICIVSPDRPGVQDAALIEAIQDRLSNTLQTYIRCRHPPPGSHLLYAKMIQKLADLRSLNEEHSKQYRCLSFQPECSMKLTPLVLEVFGNEIS
modifications: 35S-methionine labelled
B2: the “band intensity with GST-β-catenin, fold over GST-only control” value in assay [1] was found to be 7.1 fold.

B3: VDR prey (AD fusion), wild type (natural protein)
chain: MEAMAASTSLPDPGDFDRNVPRICGVCGDRATGFHFNAMTCEGCKGFFRRSMKRKALFTCPFNGDCRITKDNRRHCQACRLKRCVDIGMMKEFILTDEEVQRKREMILKRKEEEALKDSLRPKLSEEQQRIIAILLDAHHKTYDPTYSDFCQFRPPVRVNDGGGSHPSRPNSRHTPSFSGDSSSSCSDHCITSSDMMDSSSFSNLDLSEEDSDDPSVTLELSQLSMLPHLADLVSYSIQKVIGFAKMIPGFRDLTSEDQIVLLKSSAIEVIMLRSNESFTMDDMSWTCGNQDYKYRVSDVTKAGHSLELIEPLIKFQVGLKKLNLHEEEHVLLMAICIVSPDRPGVQDAALIEAIQDRLSNTLQTYIRCRHPPPGSHLLYAKMIQKLADLRSLNEEHSKQYRCLSFQPECSMKLTPLVLEVFGNEIS
Consider B3, for which, in assay [2], the fold increase of the two-hybrid signal with 1,25D over vehicle stood at 12 fold and the fold increase of the two-hybrid signal with LCA over vehicle was 8 fold.
